B1: VEGF111: new VEGF isoform lacking exons 5 to 7, SEQ ID NO:2; recombinant, produced in HEK293 cells (protein, listed as Homo sapiens)
chain: MNFLLSWVHWSLALLLYLHHAKWSQAAPMAEGGGQNHHEVVKFMDVYQRSYCHPIETLVDIFQEYPDEIEYIFKPSCVPLMRCGGCCNDEGLECVPTEESNITMQIMRIKPHQGQHIGEMSFLQHNKCECRPCGPCSERRKHLFVQDPQTCKCSCKNTDSRCKARQLELNERTCRCDKPRR
B2: rbVEGF165: commercially available recombinant VEGF165 produced in bacteria (protein)
chain: APMAEGGGQNHHEVVKFMDVYQRSYCHPIETLVDIFQEYPDEIEYIFKPSCVPLMRCGGCCNDEGLECVPTEESNITMQIMRIKPHQGQHIGEMSFLQHNKCECRPKKDRARQENPCGPCSERRKHLFVQDPQTCKCSCKNTDSRCKARQLELNERTCRCDKPRR
B3: VEGF121: known VEGF isoform, recombinant, produced in HEK293 cells (protein)
chain: APMAEGGGQNHHEVVKFMDVYQRSYCHPIETLVDIFQEYPDEIEYIFKPSCVPLMRCGGCCNDEGLECVPTEESNITMQIMRIKPHQGQHIGEMSFLQHNKCECRPKKDRARQEKCDKPRR

What was measured:
plasmin = plasmin (Homo sapiens, UniProt P00747); assay: Degradation of recombinant VEGF by plasmin, western blotting; format: in vitro ADME; conditions: 20 ng reVEGF, plasmin 0.04 to 0.32 units/ml, 4 hours
Protocol: (§1) Recombinant VEGF165, VEGF121 or VEGF111 were produced in HEK293 cells. […] The figure depicts the percentage of degradation of each VEGF by comparison with untreated samples.
To facilitate the analysis of the electrophoretic patterns they were further treated with PNGase as described above and the products of the reactions were analysed by western blotting. […] FIG. 6A depicts the percentage of degradation of each VEGF by comparison with untreated samples.

[1] = Degradation of recombinant VEGF by chronic wound fluid, western blotting; format: in vitro ADME; conditions: for susceptibility to proteolytic degradation by plasmin and fluids from chronic ulcers: summary statement
Protocol: (§2) FIG. 7: VEGF111 is resistant to degradation by fluids collected from chronic wound. A: Conditioned media containing 20 ng of recombinant VEGF as produced above were treated with chronic wound fluid collected in one patient (20 μl at 37° C.) for indicated times and analysed by western blotting using anti-VEGF antibodies. B: HUVEC were treated with recombinant VEGF111, VEGF121 or VEGF165 produced in HEK293 cells, or with commercially available VEGF165 or the carrier alone, untreated or treated with fluids from chronic wounds (20 μl at 37° C. for 24 hours), and cell multiplication was measured by incorporation of ^3H-thymidine.
Conditioned media containing 20 ng of recombinant VEGF as produced above were treated with chronic wound fluid collected in one patient (20 μl at 37° C.) for indicated times and analysed by western blotting using anti-VEGF antibodies (FIG. 7A). […] FIG. 7B depicts the effect of treatment with chronic wound fluids on the mitogenic activity of the recombinants VEGF on HUVEC.

HUVEC [2] = assay: Mitogenic activity on HUVEC of VEGF pre-treated with plasmin or chronic wound fluids (3H-thymidine incorporation); format: cell-based, human; conditions: summary statement, FIG. 6B, 7B
Protocol: as §1, §2
(§3) 15000 HUVEC were seeded in gelatin-coated wells of 24 multiwells dishes in the presence of FCS. After three hours, the medium was replaced by fresh medium containing or not VEGF and renewed every two days. Cells were collected at various times and the DNA was measured by fluorimetry on a SpectraMax Gemini XS apparatus (Molecular Devices, England) after labeling with bis-benzimide. In some experiments, ^3H-thymidine (1 μM, 2.5 Ci/mol, NEN, Wellesley, Mass., USA) was added to cell cultures at day two and the trichloracetic acid-precipitable radioactivity was measured after 18 hours.

ERK1/2 = assay: Activation of ERK1/2 signalling in HUVEC, western blotting; format: cell-based, human; conditions: HUVEC starved overnight, treated 5 min
Protocol: (§4) FIG. 4: VEGF111 is biologically active in vitro. A and B: VEGF111 activates VEGF-R2 (A) and ERK1/2 (B) in HUVEC. HUVEC were treated with HEK293 conditioned mediums containing VEGF111, VEGF121 or VEGF165, commercially available recombinant VEGF165 produced in bacteria (cVEGF) (20 ng/ml each) or fetal calf serum (FCS, 10%) for 5 minutes. Untreated cells (−) or cells treated with conditioned medium of control HEK293 cells (CM) served as control. Total and phosphorylated VEGF-R2 and ERK1/2 were measured by western blotting. C: VEGF111 promotes proliferation of HUVEC. HUVEC were treated with HEK293 conditioned mediums containing VEGF111(black circles), VEGF121 (open triangles) or VEGF165 (black triangles) (10 ng/ml) or conditioned medium from control HEK293 cells (open circles). The DNA was measured in triplicate wells harvested at increasing time of treatment. D: representative microphotograph of -embryoid bodies after immunofluorescent labeling of CD31 as marker of vasculature. Bar: […]. E: A number of microphotographs (of 6 embryoid bodies from 3 independent experiments for each treatment) were taken at random and analyzed by 5 investigators not aware of the treatments, and a score (from 0 to 3, where 0 indicates lack of vascular labeling, and 3 maximum labeling) was given to each sample. F: CD31 mRNA level was measured in embryoid bodies (10 samples in 3 independent experiment for each group) as described in Material and Methods. Statistical analysis was performed using the homoscedastic Student T test. *: p<0.05; **: p<0.01; ***: p<0.001
The proteins were migrated onto polyacrylamide gels and transferred onto PVDF transfer membranes (NEN, Boston, Mass.) by electroblotting. The membranes were blocked by non-fat dry milk (3% in PBS-tween buffer) and probed with first and horseradish peroxidase-conjugated secondary antibodies. Signals were detected by chemiluminescence using a ECL Western Blotting Analysis system (Amersham, Little Chalfont, England) and X-ray film exposure and quantified using a Fluor-S MultiImager (BioRad, Hercules, Calif.).
VEGF induces a number of effects in endothelial cells, including autophosphorylation of its receptors, activation of the ERK1/2 MAPkinases pathways, induction of calcium transients and increased proliferation. The in vitro effects of recombinants VEGFs on HUVEC were compared. HUVEC were starved overnight and treated for five min. with reVEGFs. […] Conditioned medium from HEK293 cells transfected with the empty vector had no effect. To further confirm the biological activity of VEGF111 the activation of ERK1/2 signalling pathways was investigated by western blotting using monoclonal phospho-specific antibodies. HUVEC were starved overnight and treated with the three reVEGF isoforms, as well as rbVEGF165, for 5 min. […]

HUVEC [3] = assay: Intracellular calcium transients in HUVEC (Fluo3, confocal microscopy); format: cell-based, human; conditions: conditioned medium with 10 ng VEGF, control medium about 15%
Protocol: HUVEC were plated for 18 hours in MCDB-131 medium containing 20% FCS in borosilicate culture chambers (Lab-Tek®, Nunc, Rochester N.Y.) coated with gelatin, rinsed with serum-free medium, incubated with the fluorophore Fluo3-AM (10 μM, Molecular Probes, Eugene, Oreg.) in serum-free medium for two hours and washed. The observation of the fluorescence emitted by the Fluo3-labeled cells started 5 minutes after the last washing. Microscope fields randomly selected were examined by a confocal microscope (Meridian, Akemos, Mich.). The Fluo3-loaded cells were excited by an Argon LASER at 488 nm and the emitted fluorescence recorded at 530 nm in each cell of the field by real time imaging. Image processing and data computing were performed using the Meridian software. The intensity of the emitted fluorescence was recorded every second during 4 minutes. As the overall fluorescence intensity varied from cell to cell, the level of fluorescence of each cell at the beginning of the recording was normalised to one arbitrary unit. The baseline of resting cells spontaneously oscillated by ±10% around the level of the first image acquisition. After a 20 second period of baseline recording, 10-20 μL of conditioned medium from HEK293 cells expressing or not VEGF111, VEGF121 or VEGF165 (10 ng) were added gently on the cells under microscopic examination. A 20% rise above the baseline was considered as a significant calcium rise and the cell regarded as responsive. The results were expressed as the percentage of responding cells.
The induction of calcium transients by the various reVEGFs was investigated on HUVEC by real-time fluorescent microscopy as described. As the calcium concentration in resting cells spontaneously varied by about 10% around the baseline, cells were defined as responsive when the treatments induced a peak of calcium at least 20% above the baseline. HUVEC were treated with conditioned mediums from control HEK293 cells or cells expressing VEGF111, VEGF121 and VEGF165.

HUVEC [4] = assay: HUVEC proliferation (DNA measurement); format: cell-based, human; conditions: 10 ng/ml, medium renewed every two days
Protocol: as §4
as §3, with “After three hours, the medium was replaced by fresh medium containing or not VEGF and renewed every two days.” left out, “hours. […]” for “hours.”

[5] = test system: recombinant VEGF111 produced in HEK293 cells
[6] = molecular target: recombinant VEGF121 produced in HEK293 cells (UniProt P15692)
[7] = molecular target: recombinant VEGF165 produced in HEK293 cells (UniProt P15692)

Chain of plasmin (Homo sapiens, UniProt P00747) (P00747 581-810 limits assumed, species assumed): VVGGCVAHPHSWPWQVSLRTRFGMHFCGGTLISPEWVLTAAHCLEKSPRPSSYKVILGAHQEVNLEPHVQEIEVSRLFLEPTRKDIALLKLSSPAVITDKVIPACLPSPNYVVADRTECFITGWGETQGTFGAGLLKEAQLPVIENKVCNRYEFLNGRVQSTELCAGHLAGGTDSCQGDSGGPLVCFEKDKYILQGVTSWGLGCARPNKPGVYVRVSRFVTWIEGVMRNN
Chain of plasmin (Homo sapiens, UniProt P00747) (P00747 97-580 partner limits assumed, species assumed): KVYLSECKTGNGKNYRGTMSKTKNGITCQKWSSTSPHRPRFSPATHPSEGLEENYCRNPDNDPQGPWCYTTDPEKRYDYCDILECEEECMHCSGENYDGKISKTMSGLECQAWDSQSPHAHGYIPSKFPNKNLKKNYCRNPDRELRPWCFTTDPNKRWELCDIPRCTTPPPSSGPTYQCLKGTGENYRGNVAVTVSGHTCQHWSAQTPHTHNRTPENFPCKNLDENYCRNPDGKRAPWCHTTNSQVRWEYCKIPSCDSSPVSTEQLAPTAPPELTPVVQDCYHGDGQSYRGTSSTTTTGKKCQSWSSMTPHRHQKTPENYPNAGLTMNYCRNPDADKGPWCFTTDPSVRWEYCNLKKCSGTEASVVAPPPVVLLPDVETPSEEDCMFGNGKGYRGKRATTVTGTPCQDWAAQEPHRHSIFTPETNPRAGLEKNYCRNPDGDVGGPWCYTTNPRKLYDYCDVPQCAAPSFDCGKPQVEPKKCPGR

Row | Molecule | degradation by plasmin (western blotting) (plasmin) | susceptibility to proteolytic degradation by plasmin and fluids from chronic ulcers [1] | effect of treatment by plasmin or fluids from non-healing wounds on the activity of the VEGF (HUVEC [2]) | phosphorylation of ERK1/2 (ERK1/2) | percentage of responding cells (calcium transients, peak at least 20% above baseline) (HUVEC [3]) | increase of proliferation rate as compared to control conditioned medium (HUVEC [4]) | dose of plasmin that cleaves VEGF by 50% [5] | dose of plasmin that cleaves VEGF by 50% [6] | dose of plasmin that cleaves VEGF by 50% [7] | dose of plasmin that cleaves VEGF by 50% (plasmin; 37° C.) | degradation by chronic wound fluid ([1]; 20 ng VEGF, 20 μl wound fluid of one patient, 37° C., after 24 hrs)
1 | VEGF165: known VEGF isoform, recombinant, produced in HEK293 cells [reference compound] | progressively degraded | susceptible | reduces or suppresses | induced | 70% | 2.5 fold |  |  |  |  | 
2 | plasmin |  |  |  |  |  |  | above 0.32 U/ml for VEGF111 | comprised between 0.05 and 0.07 U/ml for VEGF165 and VEGF121 | comprised between 0.05 and 0.07 U/ml for VEGF165 and VEGF121 |  | 
3 | B1 | unaffected |  | does not affect | induced | 70% | 2 fold |  |  |  | above 0.32 U/ml | no detectable degradation
4 | B2 |  |  |  | induced |  |  |  |  |  |  | 
5 | B3 | progressively degraded | susceptible | reduces or suppresses | induced | 70% | 2 fold |  |  |  |  | 

Reference: patent US20100287625A1, “VEGF VARIANTS” (UNIVERSITE DE LIEGE, priority 2006, published 2010)
